# From publication PMC2596764 (Nature immunology, 2008)
# Like-named read-outs stand apart in the source and are kept apart here. Non-standard residues stand in square brackets, D forms with d. Residues, ends and D or L forms follow the SMILES beside them. No end group written: not given here. pS = N[C@@H](COP(=O)(O)O)C(=O)O
# Experiments:
# HLA-A2 = HLA-A2 (Homo sapiens, UniProt P04439, D140Y/D185E/D98H/E176V/E277Q/G131W/G231S/I119V/I121R/I166T/I218V/L300P/L318F/N151K/N90K/P208A/P217A/Q86G/Q94H/R138H/R169H/T345S); experiment: Competitive peptide binding assay to purified HLA-A2
# [1] = target: HLA-A2-R65A (Ala substitution for Arg65) (Homo sapiens, UniProt P04439, D140Y/D185E/D98H/E176V/E277Q/G131W/G231S/I119V/I121R/I166T/I218V/N151K/N90K/P208A/P217A/Q86G/Q94H/R138H/R169H); experiment: Competitive peptide binding assay to mutant HLA-A2-R65A
# [2] = target: HLA-A*0201 (HLA-A2) heavy chain refolded with β2-microglobulin; experiment: radioligand binding
# [3] = target: HLA-A2-R65A heavy chain refolded with β2-microglobulin; experiment: radioligand binding
# [4] = target: HLA-A*0201 (HLA-A2) heavy chain refolded with β2-microglobulin; experiment: radioligand binding; remark: listed apart in the source
# [5] = target: HLA-A2-R65A heavy chain refolded with β2-microglobulin; experiment: radioligand binding; remark: listed apart in the source
Molecule,IC50 (HLA-A2),IC50 [4],other results
CC(C)C[C@H](NC(=O)CNC(=O)[C@H](Cc1ccc(O)cc1)NC(=O)[C@@H](NC(=O)[C@@H]1CCCN1C(=O)[C@H](COP(=O)(O)O)NC(=O)[C@H](Cc1ccccc1)NC(=O)[C@@H](NC(=O)[C@@H](N)CCCNC(=N)N)[C@@H](C)O)[C@@H](C)O)C(=O)O [RTFpSPTYGL] (H-RTF[pS]PTYGL-OH),32.5 nM,,
CC[C@H](C)[C@H](NC(=O)CNC(=O)[C@H](COP(=O)(O)O)NC(=O)[C@H](CC(=O)O)NC(=O)[C@H](CC(C)C)NC(=O)[C@@H](N)Cc1ccc(O)cc1)C(=O)N[C@@H](Cc1c[nH]cn1)C(=O)N[C@@H](CO)C(=O)NCC(=O)N[C@@H](C)C(=O)O [YLDpSGIHSGA] (H-YLD[pS]GIHSGA-OH),146 nM,,
CC(C)C[C@H](NC(=O)CN)C(=O)N[C@@H](CC(C)C)C(=O)NCC(=O)N[C@@H](COP(=O)(O)O)C(=O)N1CCC[C@H]1C(=O)N[C@H](C(=O)N[C@@H](CCCNC(=N)N)C(=O)N[C@@H](C)C(=O)O)C(C)C [GLLGpSPVRA] (H-GLLG[pS]PVRA-OH),169 nM,,
CC[C@H](C)[C@H](NC(=O)[C@H](CO)NC(=O)[C@H](CC(C)C)NC(=O)[C@H](COP(=O)(O)O)NC(=O)[C@H](C)NC(=O)[C@H](CCC(N)=O)NC(=O)[C@@H](N)CCCNC(=N)N)C(=O)N[C@@H](CO)C(=O)N[C@H](C(=O)O)C(C)C [RQApSLSISV] (H-RQA[pS]LSISV-OH),38.5 nM,,
CC[C@H](C)[C@H](NC(=O)[C@H](COP(=O)(O)O)NC(=O)[C@H](C)NC(=O)[C@H](CCC(N)=O)NC(=O)[C@@H](N)CCCNC(=N)N)C(=O)N[C@@H](CCC(=O)O)C(=O)N[C@@H](CC(C)C)C(=O)N1CCC[C@H]1C(=O)N[C@@H](CO)C(=O)N[C@@H](CCSC)C(=O)O [RQApSIELPSM] (H-RQA[pS]IELPSM-OH),11.2 nM,,IC50 [1]: 20 nM
CC[C@H](C)[C@H](NC(=O)[C@H](CO)NC(=O)[C@H](C)NC(=O)[C@H](CCC(N)=O)NC(=O)[C@@H](N)CCCNC(=N)N)C(=O)N[C@@H](CCC(=O)O)C(=O)N[C@@H](CC(C)C)C(=O)N1CCC[C@H]1C(=O)N[C@@H](CO)C(=O)N[C@@H](CCSC)C(=O)O (H-RQASIELPSM-OH),1770 nM,,IC50 [1]: 2140 nM
AQApSIELPSM (peptide),,,IC50 [2]: 58.7 nM; IC50 [3]: 972 nM
CSCC[C@H](NC(=O)[C@@H]1CCCN1C(=O)CNC(=O)[C@H](COP(=O)(O)O)NC(=O)[C@H](Cc1ccc(O)cc1)NC(=O)[C@@H](NC(=O)[C@@H](N)CCCNC(=N)N)[C@@H](C)O)C(=O)N[C@@H](CC(N)=O)C(=O)N[C@@H](CCCCN)C(=O)N[C@H](C(=O)O)C(C)C [RTYpSGPMNKV] (H-RTY[pS]GPMNKV-OH),117 nM,,
CC[C@H](C)[C@H](NC(=O)[C@H](CO)NC(=O)[C@H](C)NC(=O)[C@H](CC(C)C)NC(=O)[C@@H](N)CCCNC(=N)N)C(=O)N[C@@H](CCC(=O)O)C(=O)N[C@@H](CC(C)C)C(=O)N1CCC[C@H]1C(=O)N[C@@H](CO)C(=O)N[C@H](C(=O)O)C(C)C (H-RLASIELPSV-OH),0.9 nM,,
CC(C)[C@H](NC(=O)CNC(=O)[C@H](CO)NC(=O)[C@@H](NC(=O)[C@@H]1CCCN1C(=O)[C@H](COP(=O)(O)O)NC(=O)[C@H](C)NC(=O)[C@@H](NC(=O)[C@@H](N)CCCNC(=N)N)C(C)C)[C@@H](C)O)C(=O)O [RVApSPTSGV] (H-RVA[pS]PTSGV-OH),178 nM,,
CSCC[C@H](NC(=O)[C@H](CC(=O)O)NC(=O)[C@H](CC(C)C)NC(=O)[C@H](Cc1ccccc1)NC(=O)[C@H](COP(=O)(O)O)NC(=O)[C@H](CC(=O)O)NC(=O)[C@H](CCSC)NC(=O)[C@@H](N)CCCCN)C(=O)N[C@@H](CCC(N)=O)C(=O)N[C@@H](CC(C)C)C(=O)O [KMDpSFLDMQL] (H-KMD[pS]FLDMQL-OH),3.4 nM,,
CC[C@H](C)[C@H](NC(=O)[C@H](COP(=O)(O)O)NC(=O)[C@H](C)NC(=O)[C@H](CCC(N)=O)NC(=O)[C@H](C)N)C(=O)N[C@@H](CCC(=O)O)C(=O)N[C@@H](CC(C)C)C(=O)N1CCC[C@H]1C(=O)N[C@@H](CO)C(=O)N[C@@H](CCSC)C(=O)O [AQApSIELPSM],58.7 nM,,IC50 [1]: 972 nM
CC[C@H](C)[C@H](NC(=O)[C@H](CO)NC(=O)[C@H](C)NC(=O)[C@H](CCC(N)=O)NC(=O)[C@H](C)N)C(=O)N[C@@H](CCC(=O)O)C(=O)N[C@@H](CC(C)C)C(=O)N1CCC[C@H]1C(=O)N[C@@H](CO)C(=O)N[C@@H](CCSC)C(=O)O,1180 nM,,IC50 [1]: 1060 nM
CC[C@H](C)[C@H](NC(=O)[C@H](CC(C)C)NC(=O)[C@@H](N)CCCCN)C(=O)N[C@@H](CC(=O)O)C(=O)N[C@@H](CCCNC(=N)N)C(=O)N[C@H](C(=O)N[C@@H](CCC(=O)O)C(=O)N[C@@H](COP(=O)(O)O)C(=O)N[C@@H](CC(C)C)C(=O)O)[C@@H](C)O [KLIDRTEpSL] (H-KLIDRTE[pS]L-OH),62.4 nM,,
KLIDRTE[pS]L [KLIDRTEpSL],,62.4 nM,
YLDSGIHSGA (not fully specified) [… (non-phosphorylated counterpart of YLDpSGIHSGA)],,83.5 nM,

Molecule,IC50 (HLA-A2),IC50 [4],other results
RQA[pS]LSISV [RQApSLSISV],,38.5 nM,
RVA[pS]PTSGV [RVApSPTSGV],,178 nM,
KLIDRTESL (not fully specified) [… (non-phosphorylated counterpart of KLIDRTEpSL)],,102 nM,
RQA[pS]IELPSM [RQApSIELPSM],,11.2 nM,IC50 [5]: 20 nM
RTYSGPMNKV (not fully specified) [… (non-phosphorylated counterpart of RTYpSGPMNKV)],,793 nM,
YLD[pS]GIHSGA [YLDpSGIHSGA],,146 nM,
RTFSPTYGL (not fully specified) [… (non-phosphorylated counterpart of RTFpSPTYGL)],,408 nM,
KMD[pS]FLDMQL [KMDpSFLDMQL],,3.4 nM,
RTF[pS]PTYGL [RTFpSPTYGL],,32.5 nM,
KMDSFLDMQL (not fully specified) [… (non-phosphorylated counterpart of KMDpSFLDMQL)],,11.4 nM,
RTY[pS]GPMNKV [RTYpSGPMNKV],,117 nM,
GLLGSPVRA (not fully specified) [… (non-phosphorylated counterpart of GLLGpSPVRA)],,219 nM,
RVASPTSGV (not fully specified) [… (non-phosphorylated counterpart of RVApSPTSGV)],,731 nM,
RQASLSISV (not fully specified) [… (non-phosphorylated counterpart of RQApSLSISV)],,284 nM,
GLLG[pS]PVRA [GLLGpSPVRA],,169 nM,
